{
  "source": "paper PMC4267625",
  "about": "“Ubiquitin recognition by FAAP20 expands the complex interface beyond the canonical UBZ domain” (Nucleic Acids Research, 2014)",
  "binders": {"B1": {"name": "human FAAP20 UBZ (residues 140-180 of FAAP20 isoform 2), wild type (domain or fragment, UniProt Q6NZ36 140-180, looked up)", "chain": "GAAALRSCPMCQKEFAPRLTQLDVDSHLAQCLAESTEDVTW", "notes": "ends at the C-terminal W180; ZnSO4 was added at induction; 15N/13C-labelled for NMR; also called WT FAAP20; apo FAAP20; source: E. coli BL21 STAR (DE3), purified (Ni-NTA, TEV cleavage, second Ni-NTA, Superdex 75); not shown: His10, N-terminal, cleaved; GB1, N-terminal, cleaved"}, "B2": {"name": "human FAAP20 UBZ A168Y (domain or fragment, UniProt Q6NZ36 140-180, looked up)", "chain": "B1 chain with A29Y", "notes": "source: E. coli BL21 STAR (DE3), purified (Ni-NTA, TEV cleavage, second Ni-NTA, Superdex 75); not shown: His10, N-terminal, cleaved; GB1, N-terminal, cleaved"}, "B3": {"name": "human FAAP20 UBZ D164A (domain or fragment, UniProt Q6NZ36 140-180, looked up)", "chain": "B1 chain with D25A", "notes": "as for B2"}, "B4": {"name": "human FAAP20 UBZ L171A (domain or fragment, UniProt Q6NZ36 140-180, looked up)", "chain": "B1 chain with L32A", "notes": "as for B2"}, "B5": {"name": "human FAAP20 UBZ W180A (domain or fragment, UniProt Q6NZ36 140-180, looked up)", "chain": "B1 chain with W41A", "notes": "also called FAAP20 W180A mutant; source: E. coli BL21 STAR (DE3), purified (Ni-NTA, TEV cleavage, second Ni-NTA, Superdex 75); not shown: His10, N-terminal, cleaved; GB1, N-terminal, cleaved"}},
  "note": "Numbering of substitutions follows the chain as printed. Numbers in names are those of the source.",
  "data": [
    {"molecular_target": "T1, human ubiquitin, wild type (human, UniProt P0CG48 1-76)", "T1 construct": "ubiquitin, human; the mature ubiquitin unit cut from its precursor; also called WT ubiquitin; source: E. coli BL21 STAR (DE3), purified (Ni-NTA, thrombin cleavage, benzamidine column, second Ni-NTA, Superdex 75); not shown: His6, N-terminal, cleaved", "assay": "ITC; ubiquitin (2-3 mM) titrated into FAAP20 (0.2-0.3 mM); 25 mM sodium phosphate, 100 mM KCl, pH 7.0; 25°C; 28 injections of 10 μl; one-site binding fit", "details": "both partners purified", "units": {"Kd": "µM"}, "values": [
      {"binder": "B1", "Kd": 9.26},
      {"binder": "B2", "Kd": "> 600"},
      {"binder": "B3", "Kd": "> 600"},
      {"binder": "B4", "Kd": 529},
      {"binder": "B5", "Kd": "> 600"}
    ]}
  ]
}
